Positions of bridges follow the written chain, without caps; N, C: chain ends. Non-standard residues stand in square brackets, D forms with d. NMeNle = CCCC[C@H](NC)C(=O)O; NMeA = CN[C@@H](C)C(=O)O; dNMeA = CN[C@H](C)C(=O)O; Sar = CNCC(=O)O
B1: Compound No. 8 (peptide)
peptide: {CH2CO}-F[NMeA]APHL[Sar]WSW[NMeNle][NMeNle]RCG-NH2
modifications: thioether N-14
SMILES: CCCC[C@H]1C(=O)N(C)[C@@H](CCCC)C(=O)N[C@@H](CCCNC(=N)N)C(=O)N[C@H](C(=O)NCC(N)=O)CSCC(=O)N[C@@H](Cc2ccccc2)C(=O)N(C)[C@@H](C)C(=O)N[C@@H](C)C(=O)N2CCC[C@H]2C(=O)N[C@@H](Cc2c[nH]cn2)C(=O)N[C@@H](CC(C)C)C(=O)N(C)CC(=O)N[C@@H](Cc2c[nH]c3ccccc23)C(=O)N[C@@H](CO)C(=O)N[C@@H](Cc2c[nH]c3ccccc23)C(=O)N1C
notes: macrocyclic peptide, Formula I series; also called Compound 8
B2: Compound No. 55 (peptide)
peptide: {CH2CO}-F[NMeA]NPHLPWSW[NMeNle][NMeNle]RCG-NH2
modifications: thioether N-14
SMILES: CCCC[C@H]1C(=O)N(C)[C@@H](CCCC)C(=O)N[C@@H](CCCNC(=N)N)C(=O)N[C@H](C(=O)NCC(N)=O)CSCC(=O)N[C@@H](Cc2ccccc2)C(=O)N(C)[C@@H](C)C(=O)N[C@@H](CC(N)=O)C(=O)N2CCC[C@H]2C(=O)N[C@@H](Cc2c[nH]cn2)C(=O)N[C@@H](CC(C)C)C(=O)N2CCC[C@H]2C(=O)N[C@@H](Cc2c[nH]c3ccccc23)C(=O)N[C@@H](CO)C(=O)N[C@@H](Cc2c[nH]c3ccccc23)C(=O)N1C
notes: macrocyclic peptide, Formula I series; also called Compound 55
B3: Compound No. 13 (peptide)
peptide: {CH2CO}-F[NMeA]NPHL[NMeA]WSW[NMeNle][NMeNle]RCG-NH2
modifications: thioether N-14
SMILES: CCCC[C@H]1C(=O)N(C)[C@@H](CCCC)C(=O)N[C@@H](CCCNC(=N)N)C(=O)N[C@H](C(=O)NCC(N)=O)CSCC(=O)N[C@@H](Cc2ccccc2)C(=O)N(C)[C@@H](C)C(=O)N[C@@H](CC(N)=O)C(=O)N2CCC[C@H]2C(=O)N[C@@H](Cc2c[nH]cn2)C(=O)N[C@@H](CC(C)C)C(=O)N(C)[C@@H](C)C(=O)N[C@@H](Cc2c[nH]c3ccccc23)C(=O)N[C@@H](CO)C(=O)N[C@@H](Cc2c[nH]c3ccccc23)C(=O)N1C
notes: macrocyclic peptide, Formula I series; also called Compound 13
B4: Compound No. 54 (peptide)
peptide: {CH2CO}-F[NMeA]NPHLRWSW[NMeNle][NMeNle]RCG-NH2
modifications: thioether N-14
SMILES: CCCC[C@H]1C(=O)N(C)[C@@H](CCCC)C(=O)N[C@@H](CCCNC(=N)N)C(=O)N[C@H](C(=O)NCC(N)=O)CSCC(=O)N[C@@H](Cc2ccccc2)C(=O)N(C)[C@@H](C)C(=O)N[C@@H](CC(N)=O)C(=O)N2CCC[C@H]2C(=O)N[C@@H](Cc2c[nH]cn2)C(=O)N[C@@H](CC(C)C)C(=O)N[C@@H](CCCNC(=N)N)C(=O)N[C@@H](Cc2c[nH]c3ccccc23)C(=O)N[C@@H](CO)C(=O)N[C@@H](Cc2c[nH]c3ccccc23)C(=O)N1C
notes: macrocyclic peptide, Formula I series; also called Compound 54
B5: Compound No. 15 (peptide)
peptide: {CH2CO}-F[NMeA]NPHL[Sar]ASW[NMeNle][NMeNle]RCG-NH2
modifications: thioether N-14
SMILES: CCCC[C@H]1C(=O)N(C)[C@@H](CCCC)C(=O)N[C@@H](CCCNC(=N)N)C(=O)N[C@H](C(=O)NCC(N)=O)CSCC(=O)N[C@@H](Cc2ccccc2)C(=O)N(C)[C@@H](C)C(=O)N[C@@H](CC(N)=O)C(=O)N2CCC[C@H]2C(=O)N[C@@H](Cc2c[nH]cn2)C(=O)N[C@@H](CC(C)C)C(=O)N(C)CC(=O)N[C@@H](C)C(=O)N[C@@H](CO)C(=O)N[C@@H](Cc2c[nH]c3ccccc23)C(=O)N1C
notes: macrocyclic peptide, Formula I series; also called Compound 15
B6: Compound No. 22 (peptide)
peptide: {CH2CO}-F[NMeA]NPHL[Sar]WSW[NMeNle][NMeNle]ACG-NH2
modifications: thioether N-14
SMILES: CCCC[C@H]1C(=O)N(C)[C@@H](CCCC)C(=O)N[C@@H](C)C(=O)N[C@H](C(=O)NCC(N)=O)CSCC(=O)N[C@@H](Cc2ccccc2)C(=O)N(C)[C@@H](C)C(=O)N[C@@H](CC(N)=O)C(=O)N2CCC[C@H]2C(=O)N[C@@H](Cc2c[nH]cn2)C(=O)N[C@@H](CC(C)C)C(=O)N(C)CC(=O)N[C@@H](Cc2c[nH]c3ccccc23)C(=O)N[C@@H](CO)C(=O)N[C@@H](Cc2c[nH]c3ccccc23)C(=O)N1C
notes: macrocyclic peptide, Formula I series; also called Compound 22
B7: Compound No. 30 (peptide)
peptide: {CH2CO}-Y[NMeA]NPHL[Sar]WSW[NMeNle][NMeNle]RCG-NH2
modifications: thioether N-14
SMILES: CCCC[C@H]1C(=O)N(C)[C@@H](CCCC)C(=O)N[C@@H](CCCNC(=N)N)C(=O)N[C@H](C(=O)NCC(N)=O)CSCC(=O)N[C@@H](Cc2ccc(O)cc2)C(=O)N(C)[C@@H](C)C(=O)N[C@@H](CC(N)=O)C(=O)N2CCC[C@H]2C(=O)N[C@@H](Cc2c[nH]cn2)C(=O)N[C@@H](CC(C)C)C(=O)N(C)CC(=O)N[C@@H](Cc2c[nH]c3ccccc23)C(=O)N[C@@H](CO)C(=O)N[C@@H](Cc2c[nH]c3ccccc23)C(=O)N1C
notes: macrocyclic peptide, Formula I series; also called Compound 30
B8: Compound No. 61 (peptide)
peptide: {CH2CO}-F[NMeA]NPHL[Sar]WSM[NMeNle][NMeNle]RCG-NH2
modifications: thioether N-14
SMILES: CCCC[C@H]1C(=O)N(C)[C@@H](CCCC)C(=O)N[C@@H](CCCNC(=N)N)C(=O)N[C@H](C(=O)NCC(N)=O)CSCC(=O)N[C@@H](Cc2ccccc2)C(=O)N(C)[C@@H](C)C(=O)N[C@@H](CC(N)=O)C(=O)N2CCC[C@H]2C(=O)N[C@@H](Cc2c[nH]cn2)C(=O)N[C@@H](CC(C)C)C(=O)N(C)CC(=O)N[C@@H](Cc2c[nH]c3ccccc23)C(=O)N[C@@H](CO)C(=O)N[C@@H](CCSC)C(=O)N1C
notes: macrocyclic peptide, Formula I series; also called Compound 61
B9: Compound No. 16 (peptide)
peptide: {CH2CO}-F[NMeA]NPHL[Sar]WAW[NMeNle][NMeNle]RCG-NH2
modifications: thioether N-14
SMILES: CCCC[C@H]1C(=O)N(C)[C@@H](CCCC)C(=O)N[C@@H](CCCNC(=N)N)C(=O)N[C@H](C(=O)NCC(N)=O)CSCC(=O)N[C@@H](Cc2ccccc2)C(=O)N(C)[C@@H](C)C(=O)N[C@@H](CC(N)=O)C(=O)N2CCC[C@H]2C(=O)N[C@@H](Cc2c[nH]cn2)C(=O)N[C@@H](CC(C)C)C(=O)N(C)CC(=O)N[C@@H](Cc2c[nH]c3ccccc23)C(=O)N[C@@H](C)C(=O)N[C@@H](Cc2c[nH]c3ccccc23)C(=O)N1C
notes: macrocyclic peptide, Formula I series; also called Compound 16
B10: Compound No. 51 (peptide)
peptide: {CH2CO}-F[NMeA]NPHD[Sar]WSW[NMeNle][NMeNle]RCG-NH2
modifications: thioether N-14
SMILES: CCCC[C@H]1C(=O)N(C)[C@@H](CCCC)C(=O)N[C@@H](CCCNC(=N)N)C(=O)N[C@H](C(=O)NCC(N)=O)CSCC(=O)N[C@@H](Cc2ccccc2)C(=O)N(C)[C@@H](C)C(=O)N[C@@H](CC(N)=O)C(=O)N2CCC[C@H]2C(=O)N[C@@H](Cc2c[nH]cn2)C(=O)N[C@@H](CC(=O)O)C(=O)N(C)CC(=O)N[C@@H](Cc2c[nH]c3ccccc23)C(=O)N[C@@H](CO)C(=O)N[C@@H](Cc2c[nH]c3ccccc23)C(=O)N1C
notes: macrocyclic peptide, Formula I series; also called Compound 51
B11: Compound No. 25 (peptide)
peptide: {CH2CO}-W[NMeA]NPHL[Sar]WSW[NMeNle][NMeNle]RCG-NH2
modifications: thioether N-14
SMILES: CCCC[C@H]1C(=O)N(C)[C@@H](CCCC)C(=O)N[C@@H](CCCNC(=N)N)C(=O)N[C@H](C(=O)NCC(N)=O)CSCC(=O)N[C@@H](Cc2c[nH]c3ccccc23)C(=O)N(C)[C@@H](C)C(=O)N[C@@H](CC(N)=O)C(=O)N2CCC[C@H]2C(=O)N[C@@H](Cc2c[nH]cn2)C(=O)N[C@@H](CC(C)C)C(=O)N(C)CC(=O)N[C@@H](Cc2c[nH]c3ccccc23)C(=O)N[C@@H](CO)C(=O)N[C@@H](Cc2c[nH]c3ccccc23)C(=O)N1C
notes: macrocyclic peptide, Formula I series; also called Compound 25
B12: Compound No. 10 (peptide)
peptide: {CH2CO}-F[NMeA]NPAL[Sar]WSW[NMeNle][NMeNle]RCG-NH2
modifications: thioether N-14
SMILES: CCCC[C@H]1C(=O)N(C)[C@@H](CCCC)C(=O)N[C@@H](CCCNC(=N)N)C(=O)N[C@H](C(=O)NCC(N)=O)CSCC(=O)N[C@@H](Cc2ccccc2)C(=O)N(C)[C@@H](C)C(=O)N[C@@H](CC(N)=O)C(=O)N2CCC[C@H]2C(=O)N[C@@H](C)C(=O)N[C@@H](CC(C)C)C(=O)N(C)CC(=O)N[C@@H](Cc2c[nH]c3ccccc23)C(=O)N[C@@H](CO)C(=O)N[C@@H](Cc2c[nH]c3ccccc23)C(=O)N1C
notes: macrocyclic peptide, Formula I series; also called Compound 10
B13: Compound No. 53 (peptide)
peptide: {CH2CO}-F[NMeA]NPHLHWSW[NMeNle][NMeNle]RCG-NH2
modifications: thioether N-14
SMILES: CCCC[C@H]1C(=O)N(C)[C@@H](CCCC)C(=O)N[C@@H](CCCNC(=N)N)C(=O)N[C@H](C(=O)NCC(N)=O)CSCC(=O)N[C@@H](Cc2ccccc2)C(=O)N(C)[C@@H](C)C(=O)N[C@@H](CC(N)=O)C(=O)N2CCC[C@H]2C(=O)N[C@@H](Cc2c[nH]cn2)C(=O)N[C@@H](CC(C)C)C(=O)N[C@@H](Cc2c[nH]cn2)C(=O)N[C@@H](Cc2c[nH]c3ccccc23)C(=O)N[C@@H](CO)C(=O)N[C@@H](Cc2c[nH]c3ccccc23)C(=O)N1C
notes: macrocyclic peptide, Formula I series; also called Compound 53
B14: Compound No. 43 (peptide)
peptide: {CH2CO}-F[NMeA]GPHL[Sar]WSW[NMeNle][NMeNle]RCG-NH2
modifications: thioether N-14
SMILES: CCCC[C@H]1C(=O)N(C)[C@@H](CCCC)C(=O)N[C@@H](CCCNC(=N)N)C(=O)N[C@H](C(=O)NCC(N)=O)CSCC(=O)N[C@@H](Cc2ccccc2)C(=O)N(C)[C@@H](C)C(=O)NCC(=O)N2CCC[C@H]2C(=O)N[C@@H](Cc2c[nH]cn2)C(=O)N[C@@H](CC(C)C)C(=O)N(C)CC(=O)N[C@@H](Cc2c[nH]c3ccccc23)C(=O)N[C@@H](CO)C(=O)N[C@@H](Cc2c[nH]c3ccccc23)C(=O)N1C
notes: macrocyclic peptide, Formula I series; also called Compound 43
B15: Compound No. 14 (peptide)
peptide: {CH2CO}-F[NMeA]NPHL[dNMeA]WSW[NMeNle][NMeNle]RCG-NH2
modifications: thioether N-14
SMILES: CCCC[C@H]1C(=O)N(C)[C@@H](CCCC)C(=O)N[C@@H](CCCNC(=N)N)C(=O)N[C@H](C(=O)NCC(N)=O)CSCC(=O)N[C@@H](Cc2ccccc2)C(=O)N(C)[C@@H](C)C(=O)N[C@@H](CC(N)=O)C(=O)N2CCC[C@H]2C(=O)N[C@@H](Cc2c[nH]cn2)C(=O)N[C@@H](CC(C)C)C(=O)N(C)[C@H](C)C(=O)N[C@@H](Cc2c[nH]c3ccccc23)C(=O)N[C@@H](CO)C(=O)N[C@@H](Cc2c[nH]c3ccccc23)C(=O)N1C
notes: macrocyclic peptide, Formula I series; also called Compound 14

Molecular target: T1, human PD-L1 (human, UniProt Q9NZQ7 19-239, limits assumed)
T1 construct: also called Hu PD-L1; hPD-L1
Assay: cell binding assay, inhibition of Hu PD-L1/PD-1 binding

T1 sequence (Q9NZQ7 19-239 limits assumed): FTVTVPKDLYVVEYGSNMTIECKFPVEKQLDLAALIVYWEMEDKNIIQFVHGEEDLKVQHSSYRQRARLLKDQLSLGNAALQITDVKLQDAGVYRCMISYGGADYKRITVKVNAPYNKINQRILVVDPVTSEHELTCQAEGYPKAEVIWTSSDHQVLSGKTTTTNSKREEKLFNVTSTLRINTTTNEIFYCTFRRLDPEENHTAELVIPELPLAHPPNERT

Binder	IC50
B1	223 nM
B2	3 nM
B3	35 nM
B4	68 nM
B5	1910 nM
B6	28 nM
B7	3 nM
B8	195 nM
B9	13 nM
B10	118 nM
B11	19 nM
B12	82 nM
B13	47 nM
B14	5330 nM
B15	242 nM

Reference: patent US20140294898A1 (published 2014)
